According to patent US20260167721A1 (ABLEXIS, published 2026):

Legend:
[1] = target: T1, recombinant human CD3 epsilon/delta heterodimer (human, UniProt P07766 23-126; P04234 22-105); test: Octet BLI, mAb on FAB2G sensor, hCD3 E/D 200-50 nM; R^2 1.00
T1 construct: Recombinant protein in solution (200-50 nM) in the Octet assay; also called hCD3 E/D; human CD3E/D

[2] = target: T2, recombinant human CD3 epsilon/gamma heterodimer (human, UniProt P07766 23-126; P09693 23-116); test: Octet BLI, mAb on FAB2G sensor, hCD3 E/G 200-50 nM; R^2 1.00
T2 construct: Recombinant protein in solution (200-50 nM) in the Octet assay; also called hCD3 E/G
T2 sequence (P07766 23-126, chain 1 of 2): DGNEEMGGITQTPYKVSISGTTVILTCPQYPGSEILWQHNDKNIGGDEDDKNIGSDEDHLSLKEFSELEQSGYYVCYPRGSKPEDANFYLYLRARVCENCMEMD
T2 sequence (P09693 23-116, chain 2 of 2): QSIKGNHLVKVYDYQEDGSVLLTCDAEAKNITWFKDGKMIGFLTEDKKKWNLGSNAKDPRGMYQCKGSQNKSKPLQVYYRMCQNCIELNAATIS
Method: (§1) Samples were evaluated by flow cytometry analysis against Jurkat and human Pan-T cells (FIG. 1B) as well as by Octet against recombinant human CD3 proteins to evaluate apparent affinities and binding off-rates (Table 6, infra).

[3] = target: T3, CD33 on KILR-HL60 cells (UniProt P20138 18-364, limits assumed); test: flow cytometry on KILR-HL60 (CD33 expressing) cells, antibody at 1 ug/ml
T3 construct: whole, on cells; Target of the gemtuzumab arm; also called CD33 expressing cells
T3 sequence (P20138 18-364 limits assumed): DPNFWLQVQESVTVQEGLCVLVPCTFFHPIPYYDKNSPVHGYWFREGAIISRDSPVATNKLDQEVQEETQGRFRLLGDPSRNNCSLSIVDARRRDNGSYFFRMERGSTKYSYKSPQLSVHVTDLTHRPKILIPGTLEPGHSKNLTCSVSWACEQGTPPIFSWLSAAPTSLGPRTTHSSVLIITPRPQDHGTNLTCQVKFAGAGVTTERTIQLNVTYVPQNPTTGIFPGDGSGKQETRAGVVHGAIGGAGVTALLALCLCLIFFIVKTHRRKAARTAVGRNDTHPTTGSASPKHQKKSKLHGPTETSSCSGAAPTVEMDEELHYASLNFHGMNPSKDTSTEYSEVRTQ

[4] = target: T3, CD33 on KILR-HL60 cells; test: flow cytometry on KILR-HL60 (CD33 expressing) cells, antibody at 10 ug/ml
[5] = target: T1, recombinant human CD3 epsilon/delta …; test: Octet BLI, mAb on FAB2G sensor, hCD3 E/D 200-50 nM; R^2 0.97
Method: as §1

[6] = target: T2, recombinant human CD3 epsilon/gamma …; test: Octet BLI, mAb on FAB2G sensor, hCD3 E/G 200-50 nM; R^2 0.98
Method: as §1

[7] = target: T1, recombinant human CD3 epsilon/delta …; test: Octet BLI, mAb on FAB2G sensor, hCD3 E/D 200-50 nM; R^2 0.99
[8] = target: T1, recombinant human CD3 epsilon/delta …; test: Octet BLI, mAb on FAB2G sensor, hCD3 E/D 200-50 nM; R^2 0.98;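 also: antibodies purified from hybridoma supernatants, measured by Octet binding to recombinant human CD3 protein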
Method: as §1

[9] = target: T2, recombinant human CD3 epsilon/gamma …; test: Octet BLI, mAb on FAB2G sensor, hCD3 E/G 200-50 nM; R^2 0.94
Method: as §1

T1 sequence (P07766 23-126, stated change not applied, chain 1 of 2): as the sequence (P07766 23-126, chain 1 of 2) above
T1 sequence (P04234 22-105, stated change not applied, chain 2 of 2): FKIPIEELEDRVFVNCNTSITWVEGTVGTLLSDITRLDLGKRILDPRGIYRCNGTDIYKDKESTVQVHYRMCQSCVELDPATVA

B1: ABL-CD3-6 (antibody, V domains shown)
VH: EVQLVDSGGGLVKPGGSLRLSCAASGFTFSSYSMNWVRQAPGKGLEWVSSISSRGSYRNYADSVKGRFTISRDNAKNSLYLQMNSLRAEDTAVYYCARDRRELLLDCWGQGTLVTVSS
VL: SYELTQPPSVSVSPGQTARITCSGDALPKKYAYWYQQKSGQAPVLVIYEDSKRPSGIPERFSGSSSGTMATLTISGAQVEDEADYYCYSTDSSGNHSWVFGGGTKLTVL
notes: Chimeric hybridoma mAb: human V, CH1, upper hinge; mouse middle hinge, CH2, CH3
Work on B1 yielded a Kd [1] of 69.7 nM, a Response [1] of 0.3 and a koff [1] of 0.0333 s⁻¹. The kon [1] was 477000 M⁻¹ s⁻¹, the Kd [2] was 138 nM and the Response [2] was 0.17. For the same binder, the koff [2] was 0.0779 s⁻¹ and the kon [2] was 566000 M⁻¹ s⁻¹.

B2: CD3 × CD33-BspAb65 (bispecific antibody)
scFv-Fc: NFMLTQPHSVSESPGKTVTIACTRSSGSIASNYVQWYQQRPGSSPTTVIYEDNQRPSGVPDRFSGSIDSSSNSASLTISGLKTEDEADYYCQSYDSSNQVFGCGTKLTVLGGGGSGGGGSGGGGSGGGGSQVTLKESGPGILQPSQTLSLTCSFSGFSLSTFGMGVGWIRQPSGKCLEWLAHIWWDDDKYYNPALKSRLTISKDTSKNQVFLKIANVDTADTATYYCARLGYYPYWFFDVWGTGTTVTVSSGGGGSDKTHTCPPCPAPEFEGGPSVFLFPPKPKDTLMISRTPEVTCVVVDVSHEDPEVKFNWYVDGVEVHNAKTKPREEQYNSTYRVVSVLTVLHQDWLNGKEYKCKVSNKALPASIEKTISKAKGQPREPQVYTLPPCREEMTKNQVSLWCLVKGFYPSDIAVEWESNGQPENNYKTTPPVLDSDGSFFLYSKLTVDKSRWQQGNVFSCSVMHEALHNHYTQKSLSLSPGK
heavy: EVQLVQSGAEVKKPGSSVKVSCKASGYTITDSNIHWVRQAPGQSLEWIGYIYPYNGGTDYNQKFKNRATLTVDNPTNTAYMELSSLRSEDTAFYYCVNGNPWLAYWGQGTLVTVSSASTKGPSVFPLAPSSKSTSGGTAALGCLVKDYFPEPVTVSWNSGALTSGVHTFPAVLQSSGLYSLSSVVTVPSSSLGTQTYICNVNHKPSNTKVDKRVEPKSCDKTHTCPPCPAPEFEGGPSVFLFPPKPKDTLMISRTPEVTCVVVDVSHEDPEVKFNWYVDGVEVHNAKTKPREEQYNSTYRVVSVLTVLHQDWLNGKEYKCKVSNKALPASIEKTISKAKGQPREPQVCTLPPSREEMTKNQVSLSCAVKGFYPSDIAVEWESNGQPENNYKTTPPVLDSDGSFFLVSKLTVDKSRWQQGNVFSCSVMHEALHNRFTQKSLSLSPGK
light: DIQLTQSPSTLSASVGDRVTITCRASESLDNYGIRFLTWFQQKPGKAPKLLMYAASNQGSGVPSRFSGSGSGTEFTLTISSLQPDDFATYYCQQTKEVPWSFGQGTKVEVKRTVAAPSVFIFPPSDEQLKSGTASVVCLLNNFYPREAKVQWKVDNALQSGNSQESVTEQDSKDSTYSLSSTLTLSKADYEKHKVYACEVTHQGLSSPVTKSFNRGEC
With B2 the flow cytometry signal [3] was 533000 and the flow cytometry signal [4] was 605000.

B3: ABL-CD3-38 (antibody, V domains shown)
VH: QGQLQQWGAGLLKPSETLSLTCAVYGGSFSGYYWSWIRLPPGKGLEWIGEINHSGNTNYNPSLKSRVTISVDTSKNQFSLQLSSVTAADTAVYYCAKEVEIWGYFDYWGQGTLVTVSS
VL: QSVLTQPPSVSGAPGQRVTISCTGSSSNIGAGYDVHWYQQLPGTAPKLLIYGNSNRPSGVPDRFSGSKSGTSASLAITGLQAEDETDYNCQSYDSSLSGYVFGTGTKVTVL
notes: as for B1
B3 gave a Kd [5] of 1.41 nM, a Response [5] of 0.73 and a koff [5] of 0.00035 s⁻¹. For the same binder, the kon [5] was 248000 M⁻¹ s⁻¹, the Kd [6] was 1.36 nM and the Response [6] was 0.73. It also gave a koff [6] of 0.000331 s⁻¹ and a kon [6] of 243000 M⁻¹ s⁻¹.

B4: ABL-CD3-25 (antibody, V domains shown)
VH: EVHLVESGGGLVKPGGSLRLSCAASGFTFSSYSMNWVRQAPGKGLEWVSSISSSSTYIYYADSVKGRFTISRDNAKNSLYLQMNSLRAEDTAVYYCAREPRTLGMDYWGQGILVTVSS
VL: NFMLTQPHSVSESPGKTVTISCTRSSGSIASNYVQWYQQRPGSSPTTVIYEDNHRPSGVPDRFSGSIDSSSNSASLTISGLKTEDEADYFCQSFDSSNRVFGGGTKLTVL
notes: as for B1
Work on B4 yielded a Kd [7] of 8.56 nM, a Response [7] of 1.32 and a koff [7] of 0.000933 s⁻¹. The kon [7] was 109000 M⁻¹ s⁻¹, the Kd [2] was 11.7 nM and the Response [2] was 1.27. The koff [2] was 0.00113 s⁻¹ and the kon [2] was 96600 M⁻¹ s⁻¹.

B5: ABL-CD3-62 (antibody, V domains shown)
VH: EVQLVESGGGLVKPGGSLRLSCAASGFTFSSYSMNWVRQAPGKGLEWVSSISRSSGYIFYADSVKGRFTISRDNAKNSLYLQMNSLRAEDTAVYYCVRERVGAGFDYWGQGTLVTVSS
VL: NFMLTQPHSVSESPGKTVAISCTRSSGSIASNYVQWYQQRPGSSPTAVIYEDNQRPSGVPDRFSGSIDSSSNSAFLTISGLKTEDEADYYCQSYDSSNRVFGGGTKLTVL
notes: as for B1
B5 showed a Kd [8] of 34 nM, a Response [8] of 0.56 and a koff [8] of 0.00765 s⁻¹. The kon [8] was 225000 M⁻¹ s⁻¹, the Kd [6] was 23.8 nM and the Response [6] was 0.69. The koff [6] was 0.00391 s⁻¹ and the kon [6] was 164000 M⁻¹ s⁻¹.

B6: ABL-CD3-58 (antibody, V domains shown)
VH: EVQLVESGGGLVKPGGSLRLSCVVSGFTFSNYNMNWVRQAPGKGLEWVSSSSRSSYIYYADSVKGRFTISRDNAKNSLYLQMNSLRAEDTAIYYCAREKWELLFFDYWGQGTLVTVSS
VL: NFMLTQPHSVSESPGKTVTISCTRSSGSIASNFVQWYQQRPGSSPTTVIYEDNQRPSGVPDRFSGSIDSSSNSASLTISGLKTEDEADYYCQSFDSSNRVFGGGTKLTVL
notes: as for B1
B6 gave a Kd [1] of 44.1 nM, a Response [1] of 0.57 and a koff [1] of 0.00265 s⁻¹. The kon [1] was 60100 M⁻¹ s⁻¹, the Kd [9] was 45.2 nM and the Response [9] was 0.28. The koff [9] was 0.00705 s⁻¹ and the kon [9] was 156000 M⁻¹ s⁻¹.

B7: ABL-CD3-51 (antibody, V domains shown)
VH: EVQLVESGGGLVKPGGSLRLSCAASGFTFSSYSMNWVRQAPGKGLEWVSSISRSSSYIYYADSVKGRFTISRDNAKNSLYLQMNSLRAEDTAVYYCARERWELLYFDYWGQGTLVTVSS
VL: NFMLTQPHSVSESPGKTVTISCTRSSGSIASNYVQWYQQRPGSSPTTVIYEDNQRPSGVPDRFSGSIDSSSNSASLTISGLKTEDEADYYCQSYDSSNRVFGGGTKLTVL
notes: as for B1
B7 showed a Kd [8] of 77.1 nM, a Response [8] of 0.21 and a koff [8] of 0.0188 s⁻¹. The kon [8] was 244000 M⁻¹ s⁻¹, the Kd [6] was 233 nM and the Response [6] was 0.06. For the same binder, the koff [6] was 0.163 s⁻¹ and the kon [6] was 699000 M⁻¹ s⁻¹.

B8: ABL-CD3-1 (antibody, V domains shown)
VH: EVQLVESGGGLVKPGGSLRLSCAASGFTLSSYSMNWVRQAPGKGLEWVSSISRSGSYIYYADSVKGRFTISRDNAKNSLYLQMNSLRAEDTAVYYCAREKWELLYFDYWGQGTLVTVSS
VL: NFMLTQPHSVSESPGKTVTISCTRSSGSIASNYVQWYQQRPGSSPTTVIYEDNQRPSGVPDRFSGSIDSSSNSASLTISGLKTEDEADYYCQSYDSSNRVFGGGTKLTVL
notes: as for B1
B8 was tested, and the Kd [1] was 108 nM, the Response [1] was 0.31 and the koff [1] was 0.0157 s⁻¹. It also gave a kon [1] of 145000 M⁻¹ s⁻¹, a Kd [9] of 1210 nM and a Response [9] of 0.07. For the same binder, the koff [9] was 0.171 s⁻¹ and the kon [9] was 142000 M⁻¹ s⁻¹.

B9: ABL-CD3-19 (antibody, V domains shown)
VH: EVQLVESGGGLVKPGGSLRLSCAASGFTLSSYSMNWVRQAPGKGLEWVSSISRSSSYIYYADSVKGRFTISRDNAKNSLYLQMNSLRAEDTAVYYCARERWELLYFDYWGQGTLVTVSS
VL: NFMLTQPHSVSESPGKTVTISCTRSSGSIASNYVQWYQQRPGSSPTTVIYEDNQRPSGVPDRFSGSIDSSSNSASLTISGLKTEDEADYYCQSFDNSNRVFGGGTKLTVL
notes: as for B1
Binder B9 has a Kd [1] of 23.3 nM, a Response [1] of 0.6 and a koff [1] of 0.00191 s⁻¹. It also gave a kon [1] of 81700 M⁻¹ s⁻¹, a Kd [2] of 62.9 nM and a Response [2] of 0.4. The koff [2] was 0.00665 s⁻¹ and the kon [2] was 106000 M⁻¹ s⁻¹.

B10: ABL-CD3-15 (antibody, V domains shown)
VH: EVQLVESGGGLVKPGGSLRLSCAASGFNCSSYSMNWVRQAPGKGLEWVSSISRSSNYIYYADSVKGRFSISRDDAKNSLYLQMNSLRAEDTAVYYCARERWIQLYSDYWGQGILVTVSS
VL: NFMLTQPHSVSESPGKTVTISCTRSSGSIASNYVQWYQQRPGSSPTTVIYEDNQRPSGVPDRFSGSIDSSSNSASLTISGLKTEDEADYYCQSYDSSNRVFGGGTKLTVL
notes: as for B1
For B10, the Kd [7] was 1.62 nM, the Response [7] was 0.93 and the koff [7] was 0.000276 s⁻¹. For the same binder, the kon [7] was 171000 M⁻¹ s⁻¹, the Kd [2] was 6.54 nM and the Response [2] was 0.83. It also gave a koff [2] of 0.00113 s⁻¹ and a kon [2] of 173000 M⁻¹ s⁻¹.

B11: ABL-CD3-52 (antibody, V domains shown)
VH: EVQLVESGGGLVKPGGSLRLSCAASGFTFSYYSMNWVRQAPGKGLEWVSSISRSTTYIYYADSVKGRFTISRDNAKNSLYLQMNSLRAEDTAVYYCARDGKGAIFLDYWGQGTLVTVSS
VL: SYELTQPPSVSVSPGQTARITCSGDALPKKYAYWYQQKSGQAPVLVIYEDSKRPSGIPERFSGSSSGTMATLTISGAQVEDEADYYCYSTDSSGNHRVFGGGTKLTVL
notes: as for B1
With B11 the Kd [8] was 54 nM, the Response [8] was 0.35 and the koff [8] was 0.0202 s⁻¹. It also gave a kon [8] of 373000 M⁻¹ s⁻¹, a Kd [6] of 233 nM and a Response [6] of 0.14. The koff [6] was 0.115 s⁻¹ and the kon [6] was 495000 M⁻¹ s⁻¹.
